Reference: PMC4980431, “Ctf4 Is a Hub in the Eukaryotic Replisome that Links Multiple CIP-Box Proteins to the CMG Helicase” (Molecular Cell, 2016)
“Also recorded” adds a separate entry of the source. Where no end group is shown, it is not given here. fluorescein = amino-terminal fluorescein label

Key:
Ctf4-I901E (471-927) = assay: Fluorescence anisotropy, Sld5 peptide binding to Ctf4-I901E; set-up: species or system budding yeast; details: Figure S2B; 40 nM fluorescein-labeled Sld5 peptide, pH 7.2, 25°C
Method: (§1) The lowest concentration of peptide at which the binding studies could be performed was determined via peptide calibration curves. Fluorescence anisotropy measurements were recorded in a PHERAstar Plus multi-detection plate reader (BMG Labtech) equipped with fluorescence polarization optic module (λex = 485 nm; λem = 520 nm) at 25°C. Each data point is the mean of 200 flashes/well. The voltage gain was set by adjusting the target mP values of fluorescein-labeled peptides relative to that of fluorescein (35 mP). Serial dilutions of Ctf4CTD were made in 20 mM HEPES (pH 7.2), 140 mM KCl, and 5% (w/v) glycerol in the presence of 40 nM (Sld5 and Tof2) or 50 nM (Dna2) fluorescein-labeled peptide. For Dna2 peptide, each data point is the mean of three independent experiments and curve fitting to the experimental data was performed in pro Fit 6.2 (QuantumSoft) using a Levenberg-Marquardt fitting algorithm in combination with a Gaussian error distribution analysis.

Ctf4-4E (471-927) = assay: Fluorescence anisotropy, Sld5 peptide binding to Ctf4-4E; set-up: species or system budding yeast; details: Figure S2B; 40 nM fluorescein-labeled Sld5 peptide, pH 7.2, 25°C
Method: as §1

[1] = biological target: Pol1 CIP-box (Saccharomyces cerevisiae) (UniProt P13382); details: cited from earlier work
[2] = biological target: Sld5 CIP-box (Saccharomyces cerevisiae) (UniProt Q03406); details: cited from earlier work
Ctf4 471–927 [3] = biological target: T1, Ctf4 471–927 (budding yeast, UniProt Q01454 471-927); assay: pull-down; GST fusion on Glutathione Sepharose beads; 500 μl purified Ctf4CTD at 2 mg/ml, 1 hr at 4°C; 20 mM HEPES pH 7.2, 150 mM NaCl, 5% glycerol, 0.1% Igepal CA-630, 1 mM TCEP, 1% BSA; SDS-PAGE; details: both partners purified
T1 construct: also called Ctf4CTD; source: purified Ctf4CTD protein
T1 sequence (looked up): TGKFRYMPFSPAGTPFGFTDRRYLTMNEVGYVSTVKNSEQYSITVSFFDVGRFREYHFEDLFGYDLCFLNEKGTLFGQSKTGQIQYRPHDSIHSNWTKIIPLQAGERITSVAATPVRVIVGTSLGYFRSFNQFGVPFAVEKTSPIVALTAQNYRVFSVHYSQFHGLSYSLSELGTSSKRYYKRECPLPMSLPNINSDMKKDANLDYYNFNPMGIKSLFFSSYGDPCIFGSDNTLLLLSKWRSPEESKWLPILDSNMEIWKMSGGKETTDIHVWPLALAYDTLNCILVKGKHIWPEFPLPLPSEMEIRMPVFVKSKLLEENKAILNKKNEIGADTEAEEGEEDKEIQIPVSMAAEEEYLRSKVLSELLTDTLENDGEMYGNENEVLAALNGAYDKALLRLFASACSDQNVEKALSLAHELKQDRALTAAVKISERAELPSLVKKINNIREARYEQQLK

Ctf4 471–927 [4] = biological target: T1, Ctf4 471–927; assay: fluorescence polarisation; fluorescence anisotropy; serial dilutions of Ctf4CTD with 40 nM (Sld5, Tof2) or 50 nM (Dna2) fluorescein-labeled peptide; 20 mM HEPES pH 7.2, 140 mM KCl, 5% glycerol, 25°C; details: both partners purified
Ctf4 471–927 [5] = biological target: T1, Ctf4 471–927; assay: native MS; 5-fold or 10-fold molar excess of peptide mixed with 100 μM Ctf4CTD in 500 mM ammonium acetate, at least 30 min; details: both partners purified
Pol1 = assay: Yeast two-hybrid with Pol1; type: binding, budding yeast
Method: (§2) Yeast growth, two-hybrid analysis, and immunoprecipitation experiments were performed as described in detail previously ([Maculins et al., 2015], [Maric et al., 2014]). A two-hybrid screen against amino acids 461–927 of Ctf4 was performed by the company Hybrigenics.

Dna2 = assay: Yeast two-hybrid with Dna2; type: binding, budding yeast
Method: as §2

Tof2 = assay: Yeast two-hybrid with Tof2; type: binding, budding yeast
Method: as §2

Dpb2 = assay: Yeast two-hybrid with Dpb2; type: binding, budding yeast
Method: as §2

CMG helicase = assay: Co-purification with CMG helicase from yeast cell extracts; type: cell-based, budding yeast; details: extracts of S phase yeast cells; immunoprecipitation, immunoblotting
Method: (D) Cultures of ctf4-4E MCM4-9MYC (YFV13) and MCM4-9MYC control cells (YSS75) were synchronized in G1-phase at 30°C and then released into S phase for 20 min. The Mcm4-9MYC was isolated from cell extracts by immunoprecipitation and the associated proteins monitored by immunoblotting. (E) ctf4-4E is synthetic lethal with mrc1Δ. The cells were processed as in Figure 1A, and the photos in the lower images were taken after 20 hr growth at 30°C (the scale bars represent 50 μm). See also Figure S2. TEXT PRINTED IN THE PICTURE: (C) Ctf4-4E (471-927): 162 kDa
as §2

SEC-MALS = type: physicochemical; details: residues 471–927, 2 mg/ml, 20 mM HEPES pH 7.2, 160 mM NaCl
Method: 100 μl of Ctf4CTD 4E mutant protein (with mutated binding site for type I CIP-boxes) at a concentration of 2 mg/ml was loaded onto a Superdex S200 HR 10/300 gel-filtration column (GE Healthcare) in 20 mM HEPES pH 7.2, 160 mM NaCl at a flow rate of 0.5 ml/min. The column was controlled using an Äkta Purifier System (GE Healthcare) and was linked to a DAWN 8^+ 8-angle light scattering detector (Wyatt Technology) with a fused silica sample cell using a laser wavelength of 664 nm. The change in the refractive index was detected using an Optilab T-rEX refractometer with extended range (Wyatt Technology) using a wavelength of 658 nm. Data collection and analysis was carried out using the ASTRA6 software package (Wyatt Technology). Molecular weight determination across the sample peak was carried out using a Zimm-plot derived global fitting algorithm with a fit degree of 1 and a dn/dc value of 0.1850 ml/g.

Sld5 peptide (1-19): isolated peptide containing the Sld5 CIP-box, residues 1-19 (MDINIDDILAELDKETTAV; also: fluorescein-labeled, end not given here; UniProt Q03406 1-19, looked up, fragment)
binding to Ctf4-I901E (in words) (Ctf4-I901E (471-927)): blocked binding; also recorded: neither Ctf4-4E nor Ctf4-I901E could bind | binding to Ctf4-4E (in words) (Ctf4-4E (471-927)): blocked binding; also recorded: neither Ctf4-4E nor Ctf4-I901E could bind

Ctf4 (from UniProt Q01454)
Kd [1]: 25 µM | Kd [2]: 5 µM

B1: GST-Dna2 CIP-box 207–223 (domain or fragment, yeast)
chain: SLRNIDDILDDIEGDLT
notes: Dna2, budding yeast, residues 207-223 (CIP-box)
binding result (Ctf4 471–927 [3]): binds

B2: Dna2 peptide 207–223 (peptide)
peptide: fluorescein-SLRNIDDILDDIEGDLT
notes: Dna2, yeast, residues 207-223; also called Dna2 CIP-box peptide; isolated peptide containing the Dna2 CIP-box; source: synthetic peptide (Cambridge Peptides)
Kd (Ctf4 471–927 [4]): 230 µM

B3: Tof2 peptide 497–517 (peptide)
peptide: fluorescein-SHAKDVKIQETIRKLNRFKPT
notes: Tof2, yeast, amino acids 497-517; also called Tof2 CIP-box peptide; peptide containing the Tof2 CIP-box; source: synthetic peptide (Cambridge Peptides)
binding result (Ctf4 471–927 [5]): binds

B4: Ctf4-4E: Ctf4 L867E-A871E-A897E-I901E, mutated binding site for type I CIP-boxes (protein, UniProt Q01454 2-927, looked up, variant L867E A871E A897E I901E)
DNA polymerase alpha-binding …: VSVIDKLVFDFGGKTLVSLAPDNNTLCVANKNGLTKILKTNNPEEEPETLDSSKLVSSIKCYSNSHFLMTTMQGDALRYNIDSSQEELLARFALPLRDCCVIHSGKMAVFGGDDLELILLELDDETHKKHAIKIDEQVSQISYNSQMNILAVSMINGKVQIFSLTSTIPNKVHELNDYIVANSYDDTHRDKILSNMMDDIDKDNDNDLSETADPDENNVADPEFCAANRICTRVAWHPKGLHFALPCADDTVKIFSIKGYSLQKTLSTNLSSTKAHFIDLQFDPLRGTYIAAVDLNNKLTVWNWETSEIHYTREFKRKITNIAWKIQADSKTLDLVLGTWSGSIAIVQNLAESVVSNIPDQSVAESSTKHGLFVDSESDLENLEGNDDINKSDKLFSDITQEANAEDVFTQTHDGPSGLSEKRKYNFEDEEDFIDDDDGAGYISGKKPHNEHSYSRVHKTHSFPISLANTGKFRYMPFSPAGTPFGFTDRRYLTMNEVGYVSTVKNSEQYSITVSFFDVGRFREYHFEDLFGYDLCFLNEKGTLFGQSKTGQIQYRPHDSIHSNWTKIIPLQAGERITSVAATPVRVIVGTSLGYFRSFNQFGVPFAVEKTSPIVALTAQNYRVFSVHYSQFHGLSYSLSELGTSSKRYYKRECPLPMSLPNINSDMKKDANLDYYNFNPMGIKSLFFSSYGDPCIFGSDNTLLLLSKWRSPEESKWLPILDSNMEIWKMSGGKETTDIHVWPLALAYDTLNCILVKGKHIWPEFPLPLPSEMEIRMPVFVKSKLLEENKAILNKKNEIGADTEAEEGEEDKEIQIPVSMAAEEEYLRSKVLSELLTDTLENDGEMYGNENEVLAALNGAYDKALERLFESACSDQNVEKALSLAHELKQDRALTEAVKESERAELPSLVKKINNIREARYEQQLK
interaction with Pol1 (in words) (Pol1): does not interact with the amino terminus of Pol1; also recorded: unable to interact | interaction with Dna2 (in words) (Dna2): unable to interact | interaction with Tof2 (in words) (Tof2): still able to interact | interaction with Dpb2 (in words) (Dpb2): still able to interact | association with CMG helicase (in words) (CMG helicase): unable to interact with the CMG helicase | oligomeric state (in words) (SEC-MALS; SEC-MALS): able to form a trimer in vitro; also recorded: trimeric | molecular mass by SEC-MALS (SEC-MALS; printed in Figure 2C): 162 kDa

B5: Ctf4-3E: Ctf4 with M731, I740, and L756 mutated to glutamate; disrupts binding site for type II CIP-box proteins (protein)
chain: MVSVIDKLVFDFGGKTLVSLAPDNNTLCVANKNGLTKILKTNNPEEEPETLDSSKLVSSIKCYSNSHFLMTTMQGDALRYNIDSSQEELLARFALPLRDCCVIHSGKMAVFGGDDLELILLELDDETHKKHAIKIDEQVSQISYNSQMNILAVSMINGKVQIFSLTSTIPNKVHELNDYIVANSYDDTHRDKILSNMMDDIDKDNDNDLSETADPDENNVADPEFCAANRICTRVAWHPKGLHFALPCADDTVKIFSIKGYSLQKTLSTNLSSTKAHFIDLQFDPLRGTYIAAVDLNNKLTVWNWETSEIHYTREFKRKITNIAWKIQADSKTLDLVLGTWSGSIAIVQNLAESVVSNIPDQSVAESSTKHGLFVDSESDLENLEGNDDINKSDKLFSDITQEANAEDVFTQTHDGPSGLSEKRKYNFEDEEDFIDDDDGAGYISGKKPHNEHSYSRVHKTHSFPISLANTGKFRYMPFSPAGTPFGFTDRRYLTMNEVGYVSTVKNSEQYSITVSFFDVGRFREYHFEDLFGYDLCFLNEKGTLFGQSKTGQIQYRPHDSIHSNWTKIIPLQAGERITSVAATPVRVIVGTSLGYFRSFNQFGVPFAVEKTSPIVALTAQNYRVFSVHYSQFHGLSYSLSELGTSSKRYYKRECPLPMSLPNINSDMKKDANLDYYNFNPMGIKSLFFSSYGDPCIFGSDNTLLLLSKWRSPEESKWLPILDSNMEIWKESGGKETTDEHVWPLALAYDTLNCIEVKGKHIWPEFPLPLPSEMEIRMPVFVKSKLLEENKAILNKKNEIGADTEAEEGEEDKEIQIPVSMAAEEEYLRSKVLSELLTDTLENDGEMYGNENEVLAALNGAYDKALLRLFASACSDQNVEKALSLAHELKQDRALTAAVKISERAELPSLVKKINNIREARYEQQLK
interaction with Pol1 (in words) (Pol1): without affecting interaction | interaction with Dna2 (in words) (Dna2): without affecting interaction | interaction with Tof2 (in words) (Tof2): abolished interaction | interaction with Dpb2 (in words) (Dpb2): unable to interact | association with CMG helicase (in words) (CMG helicase): did not prevent association of Ctf4 with the CMG helicase
